B11: RAP1B, mGppNHp-bound (natural protein, human, UniProt P61224 1-184, looked up)
chain: MREYKLVVLGSGGVGKSALTVQFVQGIFVEKYDPTIEDSYRKQVEVDAQQCMLEILDTAGTEQFTAMRDLYMKNGQGFALVYSITAQSTFNDLQDLREQILRVKDTDDVPMILVGNKCDLEDERVVGKEQGQNLARQWNNCAFLESSAKSKINVNEIFYDLVRQINRKTPVPGKARKKSSCQLL
notes: human RAP1B; Loaded with mGppNHp

Settings in all cases: both partners purified
The target of assay [1] is T1, RAP2A, mGppNHp-bound (human, UniProt P10114 1-183).
T1 construct: human RAP2A; Loaded with mGppNHp
T1 sequence (looked up): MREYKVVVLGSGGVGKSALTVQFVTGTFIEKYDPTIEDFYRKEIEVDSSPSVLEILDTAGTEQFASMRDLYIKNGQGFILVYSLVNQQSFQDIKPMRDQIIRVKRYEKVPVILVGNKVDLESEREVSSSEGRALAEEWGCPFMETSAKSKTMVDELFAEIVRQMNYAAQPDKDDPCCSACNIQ
The assay can be described thus: fluorescence polarisation; increasing concentrations of the RA/RB domain as MBP fusion protein (0.002-300 µM; or MBP alone) titrated to mGppNHp-bound RAS protein (1 µM); 30 mM Tris-HCl pH 7.4, 100 mM NaCl, 5 mM MgCl2, 3 mM DTT; Kd from a quadratic ligand-binding equation. (In general: In fluorescence polarisation assays a small probe gives low polarisation when free and higher when bound to something large.)

Assay [2] has as its target B11. Described as above.
Assay [3] has as its target T2, RRAS1, mGppNHp-bound (human, UniProt P10301 1-218).
T2 construct: human RRAS (RRAS1); Loaded with mGppNHp
T2 sequence (looked up): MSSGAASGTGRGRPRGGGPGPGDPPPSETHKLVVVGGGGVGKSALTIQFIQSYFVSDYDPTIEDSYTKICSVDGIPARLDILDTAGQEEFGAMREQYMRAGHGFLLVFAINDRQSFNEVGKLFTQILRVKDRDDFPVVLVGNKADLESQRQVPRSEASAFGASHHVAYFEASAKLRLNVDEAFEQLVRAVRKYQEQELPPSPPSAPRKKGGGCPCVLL
The assay is described as above.

Assay [4] has as its target T3, RALA, mGppNHp-bound (human, UniProt P11233 1-206).
T3 construct: human RALA; Loaded with mGppNHp
T3 sequence (looked up): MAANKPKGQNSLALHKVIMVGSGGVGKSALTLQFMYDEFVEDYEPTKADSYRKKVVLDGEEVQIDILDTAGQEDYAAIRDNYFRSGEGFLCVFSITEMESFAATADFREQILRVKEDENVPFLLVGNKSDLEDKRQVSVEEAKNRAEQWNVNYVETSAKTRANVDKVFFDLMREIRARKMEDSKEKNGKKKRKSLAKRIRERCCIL
Described as above.

Assay [5] concerns the target T4, RHEB1, mGppNHp-bound (human, UniProt Q15382 1-184).
T4 construct: human RHEB1; Loaded with mGppNHp; the discussion speaks of the RHEB G domain
The description is as above.

For assay [6], the target named is T5, RIT1•mGppNHp (human, UniProt Q92963 1-219).
T5 construct: human RIT1; Loaded with mGppNHp
The assay is described as follows: fluorescence polarisation; increasing concentrations of RA/RB domains as MBP fusions (0.002–300 μM) added to mGppNHp-bound RAS proteins (1 μM); 30 mM Tris-HCl pH 7.4, 100 mM NaCl, 5 mM MgCl2, 3 mM DTT; quadratic ligand-binding equation.

For assay [7], the target named is T6, RIT1, mGppNHp-bound (human, UniProt Q92963 1-219).
T6 construct: human RIT1; Loaded with mGppNHp
The assay is described as follows: fluorescence polarisation; increasing concentrations of the RA/RB domain as MBP fusion protein (0.002-300 µM; or MBP alone) titrated to mGppNHp-bound RAS protein (1 µM); 30 mM Tris-HCl pH 7.4, 100 mM NaCl, 5 mM MgCl2, 3 mM DTT; Kd from a quadratic ligand-binding equation.

The target in assay [8] is T7, HRAS, mGppNHp-bound (human, UniProt P01112-1 1-189).
T7 construct: human HRAS; Loaded with mGppNHp, a fluorescent non-hydrolysable GTP analogue; That the RAS proteins were the pGEX (GST) constructs is surmised; also called HRAS1; p21HRAS
Described as above.

Assay [9] has as its target T8, CRAF RB domain, MBP fusion protein (human, UniProt P04049 51-131).
T8 construct: source: E. coli (pMal-c5X-His vector), purified as MBP fusion protein
The assay is described as above.

The term Kd denotes the concentration at which binding is half-saturated. Higher therefore signals a looser complex.

T4 sequence (Q15382 whole entry): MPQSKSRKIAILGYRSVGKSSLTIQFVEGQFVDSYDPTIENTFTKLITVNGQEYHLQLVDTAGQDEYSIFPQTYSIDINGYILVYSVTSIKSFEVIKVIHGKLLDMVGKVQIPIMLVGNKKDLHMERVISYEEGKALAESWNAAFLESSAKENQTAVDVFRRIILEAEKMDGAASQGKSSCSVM
T6 sequence (Q92963 whole entry): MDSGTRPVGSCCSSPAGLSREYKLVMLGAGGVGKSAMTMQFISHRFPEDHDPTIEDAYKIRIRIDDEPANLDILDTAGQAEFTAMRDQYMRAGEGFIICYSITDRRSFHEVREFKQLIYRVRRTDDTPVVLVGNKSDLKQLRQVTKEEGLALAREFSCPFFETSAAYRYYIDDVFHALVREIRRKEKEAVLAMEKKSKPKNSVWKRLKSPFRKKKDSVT
T5 sequence (Q92963 whole entry): as above

B1: RASSF5 RA domain, MBP fusion protein (domain or fragment, UniProt Q5EBH1 200-358, looked up)
chain: PPTIQEIKQKIDSYNSREKHCLGMKLSEDGTYTGFIKVHLKLRRPVTVPAGIRPQSIYDAIKEVNPAATTDKRTSFYLPLDAIKQLHISSTTTVSEVIQGLLKKFMVVDNPQKFALFKRIHKDGQVLFQKLSIADYPLYLRLLAGPDTDVLSFVLKENE
notes: RASSF5 RA domain, aa 200-358 of Q5EBH1 as the methods print it; also called NORE1; RAPL
As for B1, the Kd in assay [1] worked out at 2 µM; in assay [2], 4 µM; in assay [3] it was 56 µM; in assay [4], 49 µM; in [5], 46 µM.

B2: RASSF9 RA domain, MBP fusion protein (domain or fragment, human, UniProt O75901 25-119, looked up)
chain: EEKEIVVWVCQEEKLVCGLTKRTTSADVIQALLEEHEATFGEKRFLLGKPSDYCIIEKWRGSERVLPPLTRILKLWKAWGDEQPNMQFVLVKADA
notes: RASSF9 RA domain, aa 25-119 of O75901
For B2, the Kd in assay [1] was found to be 66 µM; in assay [2] it was 74 µM; in assay [5], 143 µM.

B3: RASSF9 RA domain, His-tagged MBP fusion (domain or fragment, human, UniProt O75901 25-119, looked up)
chain: EEKEIVVWVCQEEKLVCGLTKRTTSADVIQALLEEHEATFGEKRFLLGKPSDYCIIEKWRGSERVLPPLTRILKLWKAWGDEQPNMQFVLVKADA
notes: RASSF9 RAS association (RA) domain, aa 25–119 of O75901; Cloned into pMal-c5X-His; Used in fluorescence polarisation and, coupled to Ni-NTA beads, in the pull-down; source: E. coli, purified (Ni-NTA)
As to B3, in assay [6], the Kd worked out at 27 µM. In other words, the double-digit micromolar range.

B4: RASSF6 RA domain, MBP fusion protein (domain or fragment, human, UniProt Q6ZTQ3 218-306, looked up)
chain: YNHETSIFIPAFESETKVRVNSNMRTEEVIKQLLQKFKIENSPQDFALHIIFATGEQRRLKKTDIPLLQRLLQGPSEKNARIFLMDKDA
notes: RASSF6 RA domain, aa 218-306 of Q6ZTQ3
Turning to B4, the Kd turned out to be 98 µM in assay [7]; 53 µM in [1]; 65 µM in assay [2]; 112 µM in [3]; 56 µM in assay [5]; 91 µM in assay [8].

B5: RASSF2 RA domain, MBP fusion protein (domain or fragment, human, UniProt P50749 176-264, looked up)
chain: YNHKTSVFTPAYGSVTNVRINSTMTTPQVLKLLLNKFKIENSAEEFALYVVHTSGEKQKLKATDYPLIARILQGPCEQISKVFLMEKDQ
notes: RASSF2 RA domain, aa 176-264 of P50749
In the case of B5, the dissociation constant Kd in [1] was 47 µM; in [2], 67 µM; in assay [3], 122 µM; in [4], 167 µM; in assay [5] it was 44 µM.

B6: RASSF1 RA domain, MBP fusion protein (domain or fragment, human, UniProt Q9NS23 194-288, looked up)
chain: RGPGRGTSVRRRTSFYLPKDAVKHLHVLSRTRAREVIEALLRKFLVVDDPRKFALFERAERHGQVYLRKLLDDEQPLRLRLLAGPSDKALSFVLK
notes: RASSF1 RA domain, aa 194-288 of Q9NS23
Take B6: the Kd in [7] is 136 µM; in assay [1], 22 µM; in assay [2] it was 26 µM; in assay [3], 33 µM; in assay [4], 18 µM; in [5] it was 37 µM.

B7: RASSF8 RA domain, MBP fusion protein (domain or fragment, human, UniProt Q8NHQ8 1-82, looked up)
chain: MELKVWVDGVQRIVCGVTEVTTCQEVVIALAQAIGRTGRYTLIEKWRDTERHLAPHENPIISLNKWGQYASDVQLILRRTGP
notes: RASSF8 RA domain, aa 1-82 of Q8NHQ8
As to B7, the Kd in assay [7] was 76 µM; in assay [1] it was 67 µM; in assay [2], 66 µM; in [3], 114 µM; in assay [4] it was 115 µM; in assay [5], 102 µM.

B8: RASSF4 RA domain, MBP fusion protein (domain or fragment, human, UniProt Q9H2L5 174-262, looked up)
chain: YNHKTSVFTPAYGSVTNVRVNSTMTTLQVLTLLLNKFRVEDGPSEFALYIVHESGERTKLKDCEYPLISRILHGPCEKIARIFLMEADL
notes: RASSF4 RA domain, aa 174-262 of Q9H2L5
Turning to B8, the Kd in assay [7] came to 58 µM; in assay [1], 88 µM; in assay [2], 101 µM; in assay [4], 191 µM; in [5], 47 µM.

B9: RASSF10 RA domain, MBP fusion protein (domain or fragment, human, UniProt A6NK89 4-133, looked up)
chain: SEKKISVWICQEEKLVSGLSRRTTCSDVVRVLLEDGCRRRRRQRRSRRLGSAGDPHGPGELPEPPNEDDEDDDEALPQGMLCGPPQCYCIVEKWRGFERILPNKTRILRLWAAWGEEQENVRFVLVRSEA
notes: RASSF10 RA domain, aa 4-133 of A6NK89
B9: the Kd came out at 55 µM in [7]; 67 µM in [1]; 73 µM in assay [2]; 99 µM in assay [3]; 150 µM in assay [5].

B10: RASSF3 RA domain, MBP fusion protein (domain or fragment, human, UniProt Q86WH2 79-187, looked up)
chain: YTGFIKVQMELCKPPQTSPNSGKLSPSSNGCMNTLHISSTNTVGEVIEALLKKFLVTESPAKFALYKRCHREDQVYACKLSDREHPLYLRLVAGPRTDTLSFVLREHEI
notes: RASSF3 RA domain, aa 79-187 of Q86WH2
Take B10: the equilibrium dissociation constant (Kd) in [1] came to 100 µM; in [2], 116 µM; in [3], 435 µM; in [5] it was 64 µM.
Consider B11, for which the Kd in [9] came to 30 µM. That is a double-digit micromolar value.

B12: RASSF7 RA domain, MBP fusion protein (domain or fragment, human, UniProt Q02833 6-89, looked up)
chain: AAMELKVWVDGIQRVVCGVSEQTTCQEVVIALAQAIGQTGRFVLVQRLREKERQLLPQECPVGAQATCGQFASDVQFVLRRTGP
notes: RASSF7 RA domain, aa 6-89 of Q02833
Consider B12, for which the Kd in [1] worked out at 68 µM; in [2] it was 72 µM; in [3], 30 µM; in assay [4], 101 µM; in assay [5], 76 µM.

B13: RASSF7 RA domain, His-tagged MBP fusion (domain or fragment, human, UniProt Q02833 6-89, looked up)
chain: AAMELKVWVDGIQRVVCGVSEQTTCQEVVIALAQAIGQTGRFVLVQRLREKERQLLPQECPVGAQATCGQFASDVQFVLRRTGP
notes: RASSF7 RAS association (RA) domain, aa 6–89 of Q02833; Cloned into pMal-c5X-His; Used in fluorescence polarisation and, coupled to Ni-NTA beads, in the pull-down; source: E. coli, purified (Ni-NTA)
Consider B13, for which the Kd in assay [6] was 34 µM. That is a double-digit micromolar value.

For the origin of these results see paper PMC8163975 (The Journal of Biological Chemistry, 2021).
